The values below come from patent US20240368263A1 (PROMETHEUS BIOSCIENCES, published 2024).

Substitutions are numbered along the chain they refer to.

T1: human TL1A (Fitzgerald, Prod. #30R-AT070) (human, UniProt O95150 72-251, limits assumed, biotinylated with EZ-Link Sulfo-NHS-LC-Biotin where used as soluble antigen)
T1 construct: also called TNFSF15; biotinylated human TL1A
T1 sequence (looked up): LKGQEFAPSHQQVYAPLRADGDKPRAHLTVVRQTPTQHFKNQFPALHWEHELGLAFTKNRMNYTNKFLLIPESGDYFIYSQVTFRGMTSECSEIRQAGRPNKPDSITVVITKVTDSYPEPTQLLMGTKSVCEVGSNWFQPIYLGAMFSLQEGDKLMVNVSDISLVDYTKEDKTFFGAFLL

T2: Fas/TNFSF6 (R&D Systems, cat. no. 126-FL/CF) (UniProt P48023 134-281)
T2 sequence (looked up): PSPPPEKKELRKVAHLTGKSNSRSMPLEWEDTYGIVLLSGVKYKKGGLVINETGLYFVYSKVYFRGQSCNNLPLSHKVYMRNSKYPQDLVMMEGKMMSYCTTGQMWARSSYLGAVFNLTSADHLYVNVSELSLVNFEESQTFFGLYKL

B1: 18-7 (CDR-grafted LC) Fab (Fab, V domains shown)
VH: QVQLVQSGAEVKKPGASVKLSCKASGFDIQDTYMHWVRQAPGQGLEWMGRIDPASGHTKYDPKFQVRVTMTRDTSTSTVYMELSSLRSEDTAVYYCSRSGGLPDVWGQGTTVTVSS
VL: EIVLTQSPGTLSLSPGERATLSCRASSSVSYMYWYQQKPGQAPRLLIYATSNLASGIPDRFSGSGSGTDFTLTISRLEPEDFAVYYCQQWSGNPRTFGGGTKLEIK
notes: Fab; also called clone 18-7
B2: clone 5-2 Fab (12835 framework variant) (Fab, V domains shown)
VH: B1 VH
VL: B1 VL with A19V, L21M, L45P, L46W, I57V, F70Y
notes: Fab
B3: clone 21 Fab (12835 framework variant) (Fab, V domains shown)
VH: B1 VH with R72T
VL: B1 VL with L46W, F70Y
notes: Fab
B4: clone 3-4 Fab (12835 framework variant) (Fab, V domains shown)
VH: B1 VH with R72T
VL: B1 VL with L45P, L46W, I57V
notes: Fab
B5: clone 13-2 Fab (12835 framework variant) (Fab, V domains shown)
VH: B1 VH with S97A
VL: B1 VL with L45P, L46W, I57V, F70Y
notes: Fab
B6: clone 1-3 Fab (12835 framework variant) (Fab, V domains shown)
VH: B1 VH with R72T
VL: B1 VL with A19V, L21M, L45P, L46W, F70Y
notes: Fab
B7: clone 7-4 Fab (12835 framework variant) (Fab, V domains shown)
VH: B1 VH with R72T
VL: B1 VL with L46W, I57V, F70Y
notes: Fab
B8: clone 16-2 Fab (12835 framework variant) (Fab, V domains shown)
VH: B1 VH
VL: B1 VL with F70Y
notes: Fab
B9: clone 5-4 Fab (12835 framework variant) (Fab, V domains shown)
VH: B1 VH with R72T
VL: B1 VL with L45P, L46W, I57V, F70Y
notes: Fab
B10: clone 19-5 Fab (12835 framework variant) (Fab, V domains shown)
VH: B1 VH with L20V
VL: B1 VL with I57V, F70Y
notes: Fab
B11: clone 1-4 Fab (12835 framework variant) (Fab, V domains shown)
VH: B1 VH with R72T
VL: B1 VL with A19V, L21M, L46W, F70Y
notes: Fab
B12: clone 10-1 Fab (12835 framework variant) (Fab, V domains shown)
VH: B1 VH
VL: B1 VL with I57V, F70Y
notes: Fab
B13: 21-3 (CDR-grafted HC) Fab (Fab, V domains shown)
VH: B1 VH with L20V, S97A
VL: B1 VL with I57V, F70Y
notes: Fab; also called clone 21-3
B14: clone 20-7 Fab (12835 framework variant) (Fab, V domains shown)
VH: B1 VH with S97A
VL: B1 VL with I57V, F70Y
notes: Fab
B15: clone 5-1 Fab (12835 framework variant) (Fab, V domains shown)
VH: B1 VH
VL: B1 VL with L45P, L46W, I57V, F70Y
notes: Fab
B16: clone 17-2 Fab (12835 framework variant) (Fab, V domains shown)
VH: B1 VH
VL: B1 VL with I57V
notes: Fab
B17: clone 22 Fab (12835 framework variant) (Fab, V domains shown)
VH: B1 VH with R72T
VL: B1 VL with A19V, L21M, L45P, L46W, I57V
notes: Fab
B18: clone 9-1 Fab (12835 framework variant) (Fab, V domains shown)
VH: B1 VH
VL: B1 VL with L45P, L46W, I57V
notes: Fab
B19: 12835 (humanized 5C3D11) Fab (Fab, V domains shown)
VH: B1 VH with R72T
VL: B1 VL with A19V, L21M, L45P, L46W, I57V, F70Y
notes: Fab
B20: clone 2-3 Fab (12835 framework variant) (Fab, V domains shown)
VH: B1 VH with R72T
VL: B1 VL with L45P, L46W, F70Y
notes: Fab
B21: clone 19 Fab (12835 framework variant) (Fab, V domains shown)
VH: B1 VH with R72T
VL: B1 VL with F70Y
notes: Fab
B22: Clone 2 Fab (Fab, V domains shown)
VH: B1 VH with L20V, D52E, T58I, D61S, V66G, S97A, V105W
VL: B1 VL with S91E
notes: Fab
B23: Clone 34 Fab (Fab, V domains shown)
VH: B1 VH with L20V, D52E, T58I, V66G, S97A, V105W
VL: B1 VL with S91E
notes: Fab; also called variant 34
B24: Clone 52 Fab (Fab, V domains shown)
VH: B1 VH with L20V, D52E, T58I, D61S, V66G, S97A, V105W
VL: B1 VL with R24G, S91E
notes: Fab
B25: Clone 47 Fab (Fab, V domains shown)
VH: B1 VH with L20V, D52E, T58V, V66T, S97A, V105W
VL: B1 VL with S91E
notes: Fab; also called variant 47
B26: Clone X Fab (Fab, V domains shown)
VH: QVQLVQSGAEVKKPGASVKVSCKASGFDIQDTYMHWVRQAPGQGLEWMGRIDPASGHTKYDPKFQGRATITTDTSASTAYLQLSSLRSEDTAVYYCARSGGLPDFWGQGTTVTVSS
VL: B1 VL
notes: Fab
B27: Clone 14 Fab (Fab, V domains shown)
VH: B1 VH with L20V, T58I, V66K, S97A, V105M
VL: B1 VL with S91Q
notes: Fab; also called variant 14
B28: Clone 53 Fab (Fab, V domains shown)
VH: B1 VH with L20V, D52E, T58L, V66E, S97A, V105K
VL: B1 VL with S91E
notes: Fab; also called variant 53
B29: Clone 46 Fab (Fab, V domains shown)
VH: B1 VH with L20V, D52E, T58V, D61S, S97A, V105W
VL: B1 VL with S91E
notes: Fab
B30: Clone 17L Fab (Fab, V domains shown)
VH: B1 VH with L20V, T58L, S97A, V105M
VL: B1 VL with S91Q
notes: Fab
B31: Clone 23 Fab (Fab, V domains shown)
VH: B1 VH with L20V, T58L, V66N, S97A, V105K
VL: B1 VL with S91E
notes: Fab; also called variant 23

TRAIL/TNFSF10 (R&D Systems, cat. no. 375-TL/CF), sequence (P50591 114-281 limits assumed): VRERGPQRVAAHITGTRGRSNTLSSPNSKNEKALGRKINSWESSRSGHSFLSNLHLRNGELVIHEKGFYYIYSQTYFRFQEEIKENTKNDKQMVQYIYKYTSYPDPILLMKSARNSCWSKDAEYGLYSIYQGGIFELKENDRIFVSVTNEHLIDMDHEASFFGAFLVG
LIGHT/TNFSF14 (R&D Systems, cat. no. 664-LI/CF), sequence (O43557 74-240 limits assumed): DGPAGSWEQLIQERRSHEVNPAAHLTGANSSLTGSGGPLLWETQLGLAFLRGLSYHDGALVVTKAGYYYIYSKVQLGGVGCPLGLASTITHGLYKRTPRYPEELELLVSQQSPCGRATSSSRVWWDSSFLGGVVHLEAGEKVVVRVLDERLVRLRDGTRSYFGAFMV

The first assay deals with T1, human TL1A (Fitzgerald, Prod. …). The experiment in a line: capture lift screen and Fab ELISA on coated TL1A.
On to B1, for which the binding result was “binds”.
For B2, the binding result is recorded as “binds”.
Take B3: the binding result is “binds”.
With B4, the binding result is on record as “binds”.
Regarding B5, the binding result is reported as “binds”.
For B6, the binding result was “binds”.
As for B7, the binding result was “binds”.
In the case of B8, the binding result is recorded as “binds”.
Regarding B9, the binding result is on record as “binds”.
Take B10: the binding result was “binds”.
Same read-out and setting: the result for B11 reads “binds”; that for B12, “binds”.
As to B13, the binding result was “binds”.
Still for that read-out and setting: the result for B14 reads “binds”.
With B15, the binding result is on record as “binds”.
On to B16, for which the binding result is “binds”.
As for B17, the binding result is listed as “binds”.
For B18, the binding result is given as “binds”.
B19: the binding result was “binds”.
As to B20, the binding result was “binds”.
In the case of B21, the binding result is recorded as “binds”.

A further assay addresses TRAIL/TNFSF10 (R&D Systems, cat. no. 375-TL/CF) (UniProt P50591 114-281). The experiment in a line: ELISA, antigen coated at 1 µg/ml, Fab titrated. On the procedure:
(§1) Next, all the Fab variants were characterized for their selectivity for human TL1A relative to other TNFSF members TRAIL, LIGHT and Fas. […] The plate was washed 3 times with PBS-T and blocked with 100 μl of 1% BSA/PBS. The block was discarded and the Fab variants or control antibodies (Fas/TNFSF6, R&D Systems, cat. no. AF126; TRAIL/TNFSF10, R&D Systems, cat. no. AF375; LIGHT/TNFSF14, R&D Systems, cat. no. AF664) were titrated in 50 μl 1% BSA/PBS and incubated for 1 h at 25° C. The plate was washed 3 times with PBS-T and secondary HRP-conjugated antibody (diluted 5,000-fold in 1% BSA/PBS) was added for 1 h at 25° C. The plate was washed 3 times with PBS-T and developed.
For the molecule B22, the binding result was “no binding”.
Regarding B23, the binding result is on record as “no binding”.
For the molecule B24, the binding result is “no binding”.
As to B25, the binding result is “no binding”.
As to B26, the binding result is “no binding”.
As for B27, the binding result is “no binding”.
As for B28, the binding result was “no binding”.
Take B29: the binding result was “no binding”.
Take B30: the binding result was “no binding”.
As to B31, the binding result is “no binding”.

Another assay concerns the target T2, Fas/TNFSF6 (R&D Systems, cat. no. …). The experiment in a line: ELISA, antigen coated at 1 µg/ml, Fab titrated. On the procedure:
as §1
Take B22: the binding result is reported as “no binding”.
Still for that read-out and setting: in the case of B23 it was “no binding”; in that of B24, “no binding”.
On the same count and under the same terms, in the case of B25 it was “no binding”.
For the molecule B26, the binding result is “no binding”.
The same measure, in the same setting: the result for B27 reads “no binding”.
For B28, the binding result is on record as “no binding”.
On to B29, for which the binding result is on record as “no binding”.
As to B30, the binding result is recorded as “no binding”.
For the molecule B31, the binding result is reported as “no binding”.

The target in the next assay is LIGHT/TNFSF14 (R&D Systems, cat. no. 664-LI/CF) (UniProt O43557 74-240). The experiment in a line: ELISA, antigen coated at 1 µg/ml, Fab titrated. On the procedure:
as §1
As for B22, the binding result is on record as “no binding”.
Consider B23, for which the binding result is “no binding”.
Regarding B24, the binding result was “no binding”.
With B25, the binding result is listed as “no binding”.
For B26, the binding result was “no binding”.
In the case of B27, the binding result is “no binding”.
On to B28, for which the binding result is recorded as “no binding”.
On the same count and under the same terms, the result for B29 reads “no binding”.
Consider B30, for which the binding result is reported as “no binding”.
Consider B31, for which the binding result is “no binding”.
